# Patent publication US20070092444A1, “Inhibition of inward sodium currents in cancer” (priority 2003, published 2007)
# How the values were obtained:
# U87-MG and SK-MG cells = assay: [^3H]-thymidine incorporation; assay type: cell-based, human; settings: same concentration range (10-100 μM)
# Excerpt: (§1) If the Na^+ conductance seen in high-grade glioma cells was required or linked to the high rate of cell growth, inhibition of the pathway should result in inhibition of cell growth and/or cell death. […] However, benzamil is ineffective in inhibiting Na^+/H^+ exchange in glial cells (73), yet still can inhibit proliferation in this assay. […] Therefore, inhibition of the inward Na^+ current results in inhibition and/or stoppage of cell growth. These observations establish the importance of this pathway in tumor cell biology.
# U87-MG cells = assay: Transwell Migration Assay, U87-MG cells; assay type: cell-based, human; settings: concentration-dependent
# [1] = test system: SKMG, U373, and U251 glioma cell lines; assay: MTT Cell Proliferation Assay, three GBM cell lines; assay type: cell-based, human; settings: drug concentrations between 10-100 μM
# Protocol: Cells were plated in 96-well plates at 1000, 4000, and 2000 cells/well for SK-MG, U373, and U251 cells, respectively. Drug was added at specified concentration on day 3 after plating (at the beginning of log phase of growth).
# as §1
# [2] = Activity of tyrosine-extended PcTX1 compared with unmodified PcTX1
# ASIC1+ASIC2+γ-hENaC = target: T1, ASIC1+ASIC2+γ-hENaC (Homo sapiens, UniProt P51170+P78348+Q16515); assay: ASIC1+ASIC2+γ-hENaC in planar lipid bilayers; assay type: biochemical; settings: 25 μM, cis bathing solution; γ-hENaC co-expressed with ASIC1/2
# T1 construct: made in house; host or cells: Xenopus oocytes (membrane vesicles)
# Protocol: FIGS. 14A and B show the effect of syntaxin 1A on ASIC1+ASIC2 (FIG. 14A) and ASIC1+ASIC2+γ-hENaC (FIG. 14B) in planar lipid bilayers. The holding potential was +100 mV and records were filtered at 200 Hz.
# The effect of syntaxin 1A on constitutive amiloride-sensitive inward Na^+ current activity in planar lipid bilayers was examined (FIGS. 14A and B). For these experiments, membrane vesicles were prepared from oocytes that were previously injected with cRNA encoding both ASIC1 and ASIC2±γ-hENaC. […] Syntaxin 1A was then added as a GST fusion protein to the cis (or cytoplasmic) bathing solution. […] The same results were found in oocyte expression studies (FIG. 15).
# [3] = target: T2, ASIC1 (recombinant: in vitro translated in proteoliposomes, expressed in Xenopus oocytes, reconstituted in planar lipid bilayers) (UniProt P78348); assay: cell-based or functional assay
# T2 sequence (looked up): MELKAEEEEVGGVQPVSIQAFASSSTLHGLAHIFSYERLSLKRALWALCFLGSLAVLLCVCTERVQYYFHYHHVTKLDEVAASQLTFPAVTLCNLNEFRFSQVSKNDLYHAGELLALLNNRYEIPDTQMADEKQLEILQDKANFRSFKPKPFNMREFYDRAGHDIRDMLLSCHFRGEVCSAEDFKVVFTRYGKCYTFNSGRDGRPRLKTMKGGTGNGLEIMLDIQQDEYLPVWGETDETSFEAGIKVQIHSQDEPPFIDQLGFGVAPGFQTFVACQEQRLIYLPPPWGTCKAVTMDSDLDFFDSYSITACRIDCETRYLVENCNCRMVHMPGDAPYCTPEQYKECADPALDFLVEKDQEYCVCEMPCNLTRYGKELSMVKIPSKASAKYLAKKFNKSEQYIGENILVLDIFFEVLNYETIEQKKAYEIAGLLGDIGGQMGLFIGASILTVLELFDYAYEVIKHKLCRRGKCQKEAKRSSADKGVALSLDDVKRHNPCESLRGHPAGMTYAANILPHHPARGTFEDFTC
# [4] = target: T2, ASIC1 (recombinant: in vitro translated in proteoliposomes, expressed in Xenopus oocytes, reconstituted in planar lipid bilayers)
# ASIC1 = target: T3, ASIC1 (Homo sapiens, UniProt P78348); assay: Wild-type ASIC1 in planar lipid bilayers, single channel recording; assay type: biochemical; settings: PKC isoforms
# T3 sequence (P78348 1-528): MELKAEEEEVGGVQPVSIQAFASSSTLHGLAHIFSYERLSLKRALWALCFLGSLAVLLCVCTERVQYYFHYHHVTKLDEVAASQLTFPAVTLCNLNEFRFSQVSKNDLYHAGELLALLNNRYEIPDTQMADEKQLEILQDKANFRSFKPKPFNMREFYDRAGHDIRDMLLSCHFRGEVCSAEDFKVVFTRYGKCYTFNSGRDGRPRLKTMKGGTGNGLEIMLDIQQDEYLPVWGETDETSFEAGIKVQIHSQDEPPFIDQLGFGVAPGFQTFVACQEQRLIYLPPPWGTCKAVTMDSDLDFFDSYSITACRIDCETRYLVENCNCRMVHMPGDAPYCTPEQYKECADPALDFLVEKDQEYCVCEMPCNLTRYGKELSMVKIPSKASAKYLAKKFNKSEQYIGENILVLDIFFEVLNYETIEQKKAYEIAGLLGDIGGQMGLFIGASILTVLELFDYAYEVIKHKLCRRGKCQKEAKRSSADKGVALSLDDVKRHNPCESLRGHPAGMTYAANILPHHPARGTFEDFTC
# Protocol: An expanded time scale is shown below each trace.
# Wild-type ASIC1 incorporated into planar lipid bilayers at neutral pH or at acidic extracellular pH was also examined.
# Membrane potential was held at −60 mV, and the pHo was step decreased to 4.0 for 10 s, and then returned to 7.4 for 30 s before repeating the sequence.
# Control single channel were record for ASIC1 containing channels in bilayers bathed with symmetrical 100 mM NaCl, 10 mM MOPS, pH 6.2. Holding potential was +100 mV referred to the virtually grounded trans chamber. For illustration purposes, data shown were digitally filtered at 100 Hz using pCLAMP software (Axon Instruments) subsequent to acquisition of the analog signal filtered at 300 Hz with an 8-pole Bessel filter before acquisition at 1 ms per point. An expanded time scale is shown below each trace (FIG. 21).
# Representative dwell-time histograms were constructed following the events analyses performed using pCLAMP software (Axon Instruments) on single channel recordings of 10 min in duration filtered at 300 Hz with an 8-pole Bessel filter before acquisition at 1 ms per point using pCLAMP software and hardware. The event detection thresholds were 50% in amplitude of transition between closed and open states, and 3 ms in duration. Closed and open time constants shown were determined by fitting the closed and open time histograms to the probability density function (Sigworth and Sine, 1987), and using the Simplex least square routine of pSTAT. Number of bins per decade in all histograms was 16.
# T1 sequence (Q16515 whole entry, one chain of several): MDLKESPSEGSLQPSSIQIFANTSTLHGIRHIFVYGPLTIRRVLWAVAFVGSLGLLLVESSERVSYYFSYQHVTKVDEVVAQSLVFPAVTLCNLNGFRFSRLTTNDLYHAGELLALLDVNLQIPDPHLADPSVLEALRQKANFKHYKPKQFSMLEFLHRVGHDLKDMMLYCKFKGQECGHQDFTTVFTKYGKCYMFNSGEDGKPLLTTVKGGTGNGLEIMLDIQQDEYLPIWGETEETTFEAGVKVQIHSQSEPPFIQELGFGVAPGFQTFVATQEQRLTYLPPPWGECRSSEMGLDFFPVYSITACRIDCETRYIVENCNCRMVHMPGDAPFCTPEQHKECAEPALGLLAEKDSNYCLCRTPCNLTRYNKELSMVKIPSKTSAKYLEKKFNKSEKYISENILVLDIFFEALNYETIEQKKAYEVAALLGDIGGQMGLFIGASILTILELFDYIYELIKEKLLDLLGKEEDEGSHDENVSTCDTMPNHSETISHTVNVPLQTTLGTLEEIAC
# T1 sequence (P51170 whole entry, one chain of several): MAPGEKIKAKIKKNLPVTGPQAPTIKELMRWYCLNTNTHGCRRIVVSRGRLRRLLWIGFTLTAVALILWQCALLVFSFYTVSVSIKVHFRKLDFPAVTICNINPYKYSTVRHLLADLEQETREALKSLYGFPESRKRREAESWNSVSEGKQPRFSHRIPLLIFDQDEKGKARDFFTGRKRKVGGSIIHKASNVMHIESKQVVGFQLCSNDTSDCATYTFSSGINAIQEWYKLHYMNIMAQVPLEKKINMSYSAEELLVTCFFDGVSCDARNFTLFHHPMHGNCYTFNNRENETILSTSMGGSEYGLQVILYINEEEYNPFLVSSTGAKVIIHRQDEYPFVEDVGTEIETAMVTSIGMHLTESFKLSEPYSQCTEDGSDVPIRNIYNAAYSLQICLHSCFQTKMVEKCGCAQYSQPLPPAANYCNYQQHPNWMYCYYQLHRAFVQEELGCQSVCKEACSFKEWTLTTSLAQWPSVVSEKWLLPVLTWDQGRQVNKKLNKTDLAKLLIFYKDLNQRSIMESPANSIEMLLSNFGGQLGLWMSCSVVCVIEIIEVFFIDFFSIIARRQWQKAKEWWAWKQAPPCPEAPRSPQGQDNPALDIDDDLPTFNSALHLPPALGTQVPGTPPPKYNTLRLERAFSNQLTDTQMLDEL
molecule,measurement,setting,value
"N=C(N)NC(=O)c1ncc(N)nc1N [N-amidino-3,5-diamino-pyrazinecarboxamide]",[^3H]-thymidine incorporation,U87-MG and SK-MG cells,did not affect
same,Transwell migration,U87-MG cells,did not
NC(=Nc1ccccc1)NC(=O)c1nc(Cl)c(N)nc1N [phenamil],relative rate of proliferation,[1],significantly inhibited
SEQ ID NO. 2: PcTX1 with a tyrosine residue or other residue at one end to aid linking to the tag protein (EDCIPKWKGCVNRHGDCCEGLECWKRRRSFEVCVPKTPKTY; listed as Psalmopoeus cambridgei),activity relative to unmodified PcTX1,[2],identical to the unmodified PcTX1 sequence
"syntaxin 3: syntaxin family member used as specificity control (protein, UniProt Q13277 1-289, looked up) Syntaxin-3: MKDRLEQLKAKQLTQDDDTDAVEIAIDNTAFMDEFFSEIEETRLNIDKISEHVEEAKKLYSIILSAPIPEPKTKDDLEQLTTEIKKRANNVRNKLKSMEKHIEEDEVRSSADLRIRKSQHSVLSRKFVEVMTKYNEAQVDFRERSKGRIQRQLEITGKKTTDEELEEMLESGNPAIFTSGIIDSQISKQALSEIEGRHKDIVRLESSIKELHDMFMDIAMLVENQGEMLDNIELNVMHTVDHVEKARDETKKAVKYQSQARKKLIIIIVLVVVLLGILALIIGLSVGLN",inhibition of channel Po,ASIC1+ASIC2+γ-hENaC,without effect
"PKCζ (enzyme, UniProt Q05513 1-592, looked up, species assumed) Protein kinase C zeta type: MPSRTGPKMEGSGGRVRLKAHYGGDIFITSVDAATTFEELCEEVRDMCRLHQQHPLTLKWVDSEGDPCTVSSQMELEEAFRLARQCRDEGLIIHVFPSTPEQPGLPCPGEDKSIYRRGARRWRKLYRANGHLFQAKRFNRRAYCGQCSERIWGLARQGYRCINCKLLVHKRCHGLVPLTCRKHMDSVMPSQEPPVDDKNEDADLPSEETDGIAYISSSRKHDSIKDDSEDLKPVIDGMDGIKISQGLGLQDFDLIRVIGRGSYAKVLLVRLKKNDQIYAMKVVKKELVHDDEDIDWVQTEKHVFEQASSNPFLVGLHSCFQTTSRLFLVIEYVNGGDLMFHMQRQRKLPEEHARFYAAEICIALNFLHERGIIYRDLKLDNVLLDADGHIKLTDYGMCKEGLGPGDTTSTFCGTPNYIAPEILRGEEYGFSVDWWALGVLMFEMMAGRSPFDIITDNPDMNTEDYLFQVILEKPIRIPRFLSVKASHVLKGFLNKDPKERLGCRPQTGFSDIKSHAFFRSIDWDLLEKKQALPPFQPQITDDYGLDNFDTQFTSEPVQLTPDDEDAIKRIDQSEFEGFEYINPLLLSTEESV",reversal of the PKCβI+PKCβII inhibition of ASIC1 activity in bilayers (PKCε and PKCζ in combination),[3],5 fold excess
same,ASIC1 activity in planar lipid bilayers,[4],"Neither PKCε, PKCζ, nor their combination had any effect on ASIC1 activity in bilayers."
same,in vitro phosphorylation of ASIC1,[4],"PKC holoenzyme, PKCβI, PKCβII, PKCδ, PKCε, and PKCζ phosphorylated ASIC1 in vitro."
same,effect on ASIC1 activity in bilayers,ASIC1,"Neither PKCε, PKCζ, nor their combination had any effect"
